Where no end group is shown, it is not given here.
Assays:
[1] = target: FGFR2^C2 tagged with GFP or RFP; test: FRET or BRET; FLIM of GFP- and RFP-tagged FGFR2 co-expressed in serum-starved HEK293T cells, fixed
[2] = target: FGFR2 juxtamembrane region (407-462), labelled with Atto 488 (UniProt P21802); test: MST; JM labelled with Atto 488, serial dilutions of KD titrated, 25 °C; 20 mM HEPES, 150 mM NaCl, 1 mM TCEP, 0.01% Tween 20, pH 7.5; the text calls the constant of KD^pY1 apparent (Kd,app)
[3] = target: CT^C1 (C-terminal tail of FGFR2IIIb C1 isoform, GST cleaved) (UniProt P21802); test: MST; CT^C1 labeled with Atto488, titrated with unlabeled JM-KD^pY1 or KD^pY1, 25 °C
[4] = target: KD^pY1 (mono-phosphorylated FGFR2IIIb kinase domain) (UniProt P21802); test: MST; Atto488-labeled protein titrated with the same unlabeled protein, 25 °C; apparent dimerization constant, dimer to monomers
[5] = target: JM (juxtamembrane region of FGFR2IIIb, as used in MST and NMR); test: MST; JM labeled with Atto 488, serial dilutions of KD titrated, 25 °C, 20 mM HEPES, 150 mM NaCl, 1 mM TCEP, 0.01% Tween 20, pH 7.5; apparent
[6] = target: FGFR2^C3 tagged with GFP or RFP; test: FRET or BRET; FLIM of GFP- and RFP-tagged FGFR2 co-expressed in serum-starved HEK293T cells, fixed
[7] = target: FGFR2 C-terminal tail of the C1 isoform, untagged (the last 58 residues of FGFR2) (UniProt P21802); test: SPR; untagged CT immobilised on a CM4 chip by amine coupling (about 200 RU); JM-KD proteins of different phosphorylation level injected at 30 µl/min, then buffer wash; steady-state fitting
[8] = target: JM-KD^pY1 (mono-phosphorylated juxtamembrane region plus kinase domain) (UniProt P21802); test: SPR; apparent dimerization constant of JM-KD^pY1 (Supplementary Fig. 2c)
[9] = target: CT^C1 (C-terminal tail of FGFR2IIIb C1 isoform, GST cleaved) (UniProt P21802); test: SPR; BIAcore T100, CT^C1 immobilised on CM4 chip by amine coupling to about 200 RU, analytes at 30 µl/min
[10] = target: JM-KD^pY1 (mono-phosphorylated juxtamembrane region plus kinase domain) (UniProt P21802); test: MST; Atto488-labeled protein titrated with the same unlabeled protein, 25 °C; apparent dimerization constant, dimer to monomers
[11] = target: KD^pY1 (mono-phosphorylated FGFR2IIIb kinase domain) (UniProt P21802); test: MST; peptide fragments of CT against KD^pY1 (Supplementary Table 4, Supplementary Fig. 3a)
[12] = target: T1, FGFR2 kinase domain, mono-phosphorylated on Y657 (UniProt P21802-3 465-764, Y467F (worked out from the printed order of phosphorylation) | Y587F (worked …, phosphotyrosine at 657)); test: MST; synthetic JM or CT peptides in serial dilution against KD^pY1, 25 °C; 20 mM HEPES, 150 mM NaCl, 1 mM TCEP, 0.01% Tween 20, pH 7.5; conditions: both partners purified
T1 construct: FGFR2 (IIIb isoform) kinase domain, residues 465-764; numbers count on: FGFR2IIIb (C1 isoform, 822 residues); also called KD^pY1; source: E. coli BL21(DE3), purified (Talon, Superdex 75)
T1 sequence (P21802 464-763 Y466F/Y586F/Y588F/Y657F/Y733F): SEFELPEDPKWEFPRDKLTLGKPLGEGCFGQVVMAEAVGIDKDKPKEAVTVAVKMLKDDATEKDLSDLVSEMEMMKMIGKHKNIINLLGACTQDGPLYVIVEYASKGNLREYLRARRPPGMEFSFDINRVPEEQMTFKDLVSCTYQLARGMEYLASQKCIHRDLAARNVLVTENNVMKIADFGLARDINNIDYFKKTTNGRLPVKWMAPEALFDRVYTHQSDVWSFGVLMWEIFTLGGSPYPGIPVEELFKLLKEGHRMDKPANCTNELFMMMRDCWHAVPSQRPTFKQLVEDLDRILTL

[13] = target: T2, FGFR2 juxtamembrane region (407-462), labelled with Atto 488 (UniProt P21802-3 407-462, Atto 488 dye label); test: MST; JM labelled with Atto488 (100 nM), 2-fold serial dilutions of CT peptides, 25 °C; 20 mM HEPES, 150 mM NaCl, 1 mM TCEP, 0.01% Tween 20, pH 7.5; conditions: both partners purified
T2 construct: FGFR2 (IIIb isoform) juxtamembrane region, residues 407-462; numbers count on: FGFR2IIIb (C1 isoform, 822 residues); also called JM; 407Juxtamembrane region462; source: synthetic peptide, bought: Genscript
T2 sequence (looked up): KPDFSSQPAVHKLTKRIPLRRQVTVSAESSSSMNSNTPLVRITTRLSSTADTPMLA

[14] = target: JM (juxtamembrane region of FGFR2IIIb, as used in MST and NMR); test: MST; JM labeled with Atto 488, two-fold serial dilution of CT titrated
FGFR2 JM-KD Y657/658F = target: T3, FGFR2 JM-KD Y657/658F (UniProt P21802-3 414-764, Y657/658F | Y657/658F); test: SPR; untagged CT immobilised on a CM4 chip by amine coupling (about 200 RU); JM-KD proteins of different phosphorylation level injected at 30 µl/min, then buffer wash; steady-state fitting; conditions: both partners purified
T3 construct: numbers count on: FGFR2IIIb (C1 isoform, 822 residues); source: E. coli BL21(DE3), purified (Talon, Superdex 75)
T3 sequence (P21802 other isoform, or with tags, fused parts or gaps Y657/658F | Y657/658F | Y657/658F | Y657/658F): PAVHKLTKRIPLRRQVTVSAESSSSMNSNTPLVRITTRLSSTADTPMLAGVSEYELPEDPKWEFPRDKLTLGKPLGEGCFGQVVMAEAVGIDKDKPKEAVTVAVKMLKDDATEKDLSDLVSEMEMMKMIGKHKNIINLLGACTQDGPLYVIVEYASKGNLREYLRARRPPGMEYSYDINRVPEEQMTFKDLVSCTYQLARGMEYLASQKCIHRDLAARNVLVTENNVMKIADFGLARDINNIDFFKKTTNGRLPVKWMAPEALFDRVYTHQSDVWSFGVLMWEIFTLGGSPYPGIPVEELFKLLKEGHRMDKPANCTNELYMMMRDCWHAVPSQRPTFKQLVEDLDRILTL

[15] = target: T4, FGFR2 JM-KD, phosphorylation state pY2 (UniProt P21802-3 414-764, Y467F (worked out from the printed order of phosphorylation) | Y589F (worked …, phosphotyrosine at 657 and 587)); test: as above; conditions: both partners purified
T4 construct: numbers count on: FGFR2IIIb (C1 isoform, 822 residues); also called JM-KD^pY2; source: E. coli BL21(DE3), purified (Talon, Superdex 75)
T4 sequence (P21802 413-763 Y466F/Y588F/Y657F/Y733F): as the sequence (P21802 other isoform, or with tags, fused parts or gaps Y657/658F | Y657/658F | Y657/658F | Y657/658F) above, with Y54F, Y176F, F244Y, Y321F counted along it

[16] = target: T5, FGFR2 JM-KD, phosphorylation state pY3 (UniProt P21802-3 414-764, Y589F (worked out from the printed order of phosphorylation) | Y658F (worked …, phosphotyrosine at 657, 587 and 467)); test: as above; conditions: both partners purified
T5 construct: numbers count on: FGFR2IIIb (C1 isoform, 822 residues); also called JM-KD^pY3; source: E. coli BL21(DE3), purified (Talon, Superdex 75)
T5 sequence (P21802 413-763 Y588F/Y657F/Y733F): as the sequence (P21802 other isoform, or with tags, fused parts or gaps Y657/658F | Y657/658F | Y657/658F | Y657/658F) above, with Y176F, F244Y, Y321F counted along it

[17] = target: T6, FGFR2 JM-KD, phosphorylation state pY4 (UniProt P21802-3 414-764, Y658F (worked out from the printed order of phosphorylation) | Y734F (worked …, phosphotyrosine at 657, 587, 467 and 589)); test: as above; conditions: both partners purified
T6 construct: numbers count on: FGFR2IIIb (C1 isoform, 822 residues); also called JM-KD^pY4; source: E. coli BL21(DE3), purified (Talon, Superdex 75)
T6 sequence (P21802 413-763 Y657F/Y733F): as the sequence (P21802 other isoform, or with tags, fused parts or gaps Y657/658F | Y657/658F | Y657/658F | Y657/658F) above, with F244Y, Y321F counted along it

[18] = target: T7, FGFR2 JM-KD, phosphorylation state pY5 (UniProt P21802-3 414-764, Y734F (worked out from the printed order of phosphorylation), phosphotyrosine at 657, 587, 467, 589 and 658); test: as above; conditions: both partners purified
T7 construct: numbers count on: FGFR2IIIb (C1 isoform, 822 residues); also called JM-KD^pY5; source: E. coli BL21(DE3), purified (Talon, Superdex 75)
T7 sequence (P21802 413-763 Y733F): as the sequence (P21802 other isoform, or with tags, fused parts or gaps Y657/658F | Y657/658F | Y657/658F | Y657/658F) above, with F244Y, F245Y, Y321F counted along it

[19] = target: T8, FGFR2 JM-KD wild type, phosphorylated (UniProt P21802-3 414-764, phosphotyrosines (phosphorylated wild type; sites not listed)); test: as above; conditions: both partners purified
T8 construct: numbers count on: FGFR2IIIb (C1 isoform, 822 residues); also called JM-KD^pWT; JM-KD^pYWT; source: E. coli BL21(DE3), purified (Talon, Superdex 75)
T8 sequence (P21802 413-763): as the sequence (P21802 other isoform, or with tags, fused parts or gaps Y657/658F | Y657/658F | Y657/658F | Y657/658F) above, with F244Y, F245Y counted along it

[20] = target: T1, FGFR2 kinase domain, …; test: MST; synthetic JM or CT peptides in serial dilution against KD^pY1, 25 °C; 20 mM HEPES, 150 mM NaCl, 1 mM TCEP, 0.01% Tween 20, pH 7.5; conditions: both partners purified; remark: listed apart in the source
[21] = target: T9, FGFR2 C-terminal tail of the C1 isoform, untagged, labelled with Atto 488 (UniProt P21802-3 765-822, Atto 488 dye label); test: MST; CT labelled with Atto 488 (100 nM), 2-fold serial dilutions of JM peptides, 25 °C; 20 mM HEPES, 150 mM NaCl, 1 mM TCEP, 0.01% Tween 20, pH 7.5; conditions: both partners purified
T9 construct: FGFR2 (IIIb, C1 isoform) C-terminal tail, the last 58 residues of FGFR2; numbers count on: FGFR2IIIb (C1 isoform, 822 residues); also called CT^C1; source: E. coli BL21(DE3), purified as GST fusion, GST removed with thrombin
T9 sequence (looked up): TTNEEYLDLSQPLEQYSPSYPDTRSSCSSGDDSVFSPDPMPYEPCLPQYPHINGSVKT

With “FGFR2^C2 tagged with GFP or RFP (receptor)” the percent of molecules showing dimerization above the control threshold [1] was 16%.

“FGFR2 kinase domain, phosphorylation state pY6 (from UniProt P21802-3 465-764) (domain or fragment)” showed a Kd [2] of 20.5 µM.

Work on “KD^pY1 (mono-phosphorylated FGFR2IIIb kinase domain) (from UniProt P21802-3 465-764) (domain or fragment)” yielded a Kd [3] of 3.75 µM, a Kd [4] of 0.112 µM and a Kd [5] of 2.51 µM.

With “FGFR2^C3 tagged with GFP or RFP (receptor)” the percent of molecules showing interaction [6] was 26%.

“FGFR2 JM-KD, phosphorylation state pY6 (from UniProt P21802-3 414-764) (domain or fragment)” showed a Kd [7] of 4.63 µM.

Molecule “JM-KD^pY1 (mono-phosphorylated juxtamembrane region plus kinase domain) (from UniProt P21802-3 414-764) (domain or fragment)” has a Kd [8] of 3.07 µM, a Kd [3] of 0.304 µM and a Kd [9] of 0.16 µM. For the same molecule, the Kd [10] was 3.46 µM.

B1: CT peptide 801-815 (peptide)
peptide: PDPMPYEPCLPQYPH
notes: numbers count on: FGFR2IIIb (C1 isoform, 822 residues); source: synthetic peptide, bought: Genscript
B1 was tested, and the Kd [11] was 25.9 µM, the Kd [12] was 25.8 ± 5.4 µM and the Kd [13] was 63.6 ± 6.5 µM.

B2: CT^C1 (C-terminal tail of FGFR2IIIb C1 isoform, GST cleaved) (domain or fragment)
chain: T9 sequence (looked up)
modifications: cysteine pairing not given here; also: Atto488 label (MST), place not given here, 15N-labeled (NMR)
With B2 the Kd [14] was 20.2 µM.

B3: CT peptide 808-822 (peptide)
peptide: PCLPQYPHINGSVKT
notes: FGFR2 (IIIb, C1 isoform) C-terminal tail, residues 808-822; numbers count on: FGFR2IIIb (C1 isoform, 822 residues); also called CT^808-822; source: synthetic peptide, bought: Genscript
For B3, the Kd [12] was 257 ± 39.2 µM.

B4: CT peptide 815-822 (peptide)
peptide: HINGSVKT
notes: FGFR2 (IIIb, C1 isoform) C-terminal tail, residues 815-822; numbers count on: FGFR2IIIb (C1 isoform, 822 residues); also called CT^815-822; source: synthetic peptide, bought: Genscript
With B4 the Kd [12] was 426 ± 42.5 µM.

B5: CT peptide 808-815 (peptide)
peptide: PCLPQYPH
notes: FGFR2 (IIIb, C1 isoform) C-terminal tail, residues 808-815; numbers count on: FGFR2IIIb (C1 isoform, 822 residues); also called CT^808-815; source: synthetic peptide, bought: Genscript
In the case of B5, the Kd [12] is reported as 291 ± 21.4 µM and the Kd [13] is reported as 56.6 ± 5.5 µM.

B6: CT peptide 808-819 (peptide)
peptide: PCLPQYPHINGS
notes: numbers count on: FGFR2IIIb (C1 isoform, 822 residues); also called 808PCLPQYPHINGS819; source: synthetic peptide, bought: Genscript
Molecule B6 has a Kd [12] of 255 ± 37.9 µM.

B7: FGFR2 C-terminal tail of the C1 isoform, untagged (the last 58 residues of FGFR2) (domain or fragment, UniProt P21802-3 765-822, looked up)
chain: T9 sequence (looked up)
notes: FGFR2 (IIIb, C1 isoform) C-terminal tail, the last 58 residues of FGFR2; numbers count on: FGFR2IIIb (C1 isoform, 822 residues); Unlabelled form: immobilised by amine coupling in SPR; added as 'CT' in the steady-state FRET; also called CT^C1; source: E. coli BL21(DE3), purified as GST fusion, GST removed with thrombin
For B7, the Kd (FGFR2 JM-KD Y657/658F) was 5.68 µM, the Kd [15] was 4.08 µM and the Kd [16] was 3.27 µM. For the same molecule, the Kd [17] was 7.87 µM, the Kd [18] was 1.6 µM and the Kd [19] was 2.31 µM.

B8: JM peptide 407-420 (peptide)
peptide: KPDFSSQPAVHKLT
notes: FGFR2 (IIIb isoform) juxtamembrane region, residues 407-420; numbers count on: FGFR2IIIb (C1 isoform, 822 residues); source: synthetic peptide, bought: Genscript
For B8, the Kd [20] was 105 ± 7.37 µM and the Kd [21] was 200 ± 13.7 µM.

B9: JM peptide 429-442 (peptide)
peptide: VTVSAESSSSMNSN
notes: as for B1
B9 was tested, and the Kd [21] was 3.23 ± 0.326 µM.

B10: JM peptide 439-452 (peptide)
peptide: MNSNTPLVRITTRL
notes: FGFR2 (IIIb isoform) juxtamembrane region, residues 439-452; numbers count on: FGFR2IIIb (C1 isoform, 822 residues); source: synthetic peptide, bought: Genscript
Molecule B10 has a Kd [21] of 372 ± 30.3 µM.

B11: JM peptide 449-462 (peptide)
peptide: TTRLSSTADTPMLA
notes: as for B1
B11 was tested, and the Kd [21] was 25.4 ± 3.26 µM.

B12: JM peptide 414-430 (peptide)
peptide: PAVHKLTKRIPLRRQVT
notes: as for B1
B12 gave a Kd [20] of 36.8 ± 6.23 µM.

— paper PMC10349056, “The combined action of the intracellular regions regulates FGFR2 kinase activity” (Communications Biology, 2023)
